Measurements from PMC11089504 (Journal of medicinal chemistry, 2024).

What was measured:
[1] = tested on: C=C(CC[C@@H](C)[C@H]1CC[C@@]2(C)C3=C(CC[C@]12C)[C@@]1(C)CC[C@H](O)[C@@H](C)[C@@H]1CC3)C(C)C; test: purified protein, by the assay type; details: other: 37 °C, 1 min reactions obtusifoliol, 20 min lanosterol
[2] = tested on: CC(C)=CCC[C@@H](C)[C@H]1CC[C@@]2(C)C3=C(CC[C@]12C)[C@@]1(C)CC[C@H](O)C(C)(C)[C@@H]1CC3; test: purified protein, by the assay type; details: other: 37 °C, 1 min reactions obtusifoliol, 20 min lanosterol
A. castellanii CYP51 = biological target: T1, A. castellanii CYP51 (Acanthamoeba castellanii, UniProt L8GJB3, V2A); test: A. castellanii CYP51 inhibition assay, reconstituted 1 h enzyme reaction; format: biochemical; details: 1 h IC50, 1 h reaction, 0.5 μM P450, 50 μM obtusifoliol
T1 sequence (L8GJB3 1-486 V2A): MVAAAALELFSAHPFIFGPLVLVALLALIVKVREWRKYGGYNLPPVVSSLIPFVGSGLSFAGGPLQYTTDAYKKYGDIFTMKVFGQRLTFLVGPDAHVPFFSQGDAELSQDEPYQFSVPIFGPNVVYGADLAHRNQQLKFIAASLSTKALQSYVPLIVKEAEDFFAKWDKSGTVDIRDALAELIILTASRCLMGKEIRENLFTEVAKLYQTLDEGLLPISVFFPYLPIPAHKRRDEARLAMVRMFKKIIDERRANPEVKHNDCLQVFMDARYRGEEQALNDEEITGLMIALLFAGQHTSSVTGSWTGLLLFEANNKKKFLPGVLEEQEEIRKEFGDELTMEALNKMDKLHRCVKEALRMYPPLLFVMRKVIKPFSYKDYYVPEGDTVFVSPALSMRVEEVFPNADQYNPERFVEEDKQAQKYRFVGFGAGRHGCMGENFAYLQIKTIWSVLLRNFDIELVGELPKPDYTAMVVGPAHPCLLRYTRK
T1 sequence (P00388 2-678 partner): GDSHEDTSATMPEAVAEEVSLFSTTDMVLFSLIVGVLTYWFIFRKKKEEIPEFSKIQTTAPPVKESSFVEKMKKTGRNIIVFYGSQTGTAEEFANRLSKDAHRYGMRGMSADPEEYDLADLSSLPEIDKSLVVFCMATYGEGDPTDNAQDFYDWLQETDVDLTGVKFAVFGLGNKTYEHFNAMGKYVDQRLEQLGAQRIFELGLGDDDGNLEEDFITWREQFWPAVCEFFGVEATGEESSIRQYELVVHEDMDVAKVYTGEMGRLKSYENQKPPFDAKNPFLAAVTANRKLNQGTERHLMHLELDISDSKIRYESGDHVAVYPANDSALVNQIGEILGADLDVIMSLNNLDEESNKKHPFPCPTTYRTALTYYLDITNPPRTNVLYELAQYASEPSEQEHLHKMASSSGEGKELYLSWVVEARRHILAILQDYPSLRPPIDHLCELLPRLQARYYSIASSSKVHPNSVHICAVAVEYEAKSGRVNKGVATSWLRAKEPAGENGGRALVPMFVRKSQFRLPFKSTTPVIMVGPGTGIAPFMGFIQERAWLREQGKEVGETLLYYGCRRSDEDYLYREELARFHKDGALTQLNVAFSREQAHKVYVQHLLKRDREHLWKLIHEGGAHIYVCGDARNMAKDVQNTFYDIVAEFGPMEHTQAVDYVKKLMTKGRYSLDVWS

## A. castellanii CYP51 (Acanthamoeba castellanii str. Neff; V2A)
[1]
  Km: 2.7 ± 0.3 µM
  kcat: 0.513 s⁻¹
  kcat/Km: 190000 M⁻¹ s⁻¹
[2]
  Km: 52 ± 15 µM
  kcat: 0.102 s⁻¹
  kcat/Km: 2000 M⁻¹ s⁻¹

## OC(Cn1cncn1)(Cn1cncn1)c1ccc(F)cc1F [fluconazole]
A. castellanii CYP51
  IC50: 71 µM
